± gives the standard deviation of the averaged measurements.
B1: library; a variant is named by its letters at N, in order (parent)
chain: GCUGUCACCGGAAUACCAGCAUCGUCUUGAUGCCCUUGGAAGUCCGGUCUGAUGAGUCCNNNNNGGACGAAACAGC

What was measured:
theophylline [1] = variants of: B1; test: FACS-Seq fitted mean relative fluorescence mCherry/BFP without ligand (log10 relative fluorescence); higher = higher reporter protein expression; conditions: HEK293T, ligand present: no
Experimental: (§1)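 Hammerhead (sTRSV) ribozyme switch libraries with a ligand aptamer grafted on stem I and a randomized N4-6 loop II, cloned into the 3' UTR of mCherry and transiently transfected into HEK293T cells; RNA-Seq 72 h post transfection with ligand added 1 h before transfection; RNA read count / plasmid DNA read count normalized to the non-cleaving sTRSVctl (x100), log10; sequences with >100 DNA reads. FACS-Seq: lentiviral library sorted into 6 bins after 48 h ligand, log-normal fit mean of mCherry/BFP scaled to controls. Printed sequences are partial switch sequences.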

theophylline [2] = variants of: B1; test: normalized RNA/DNA level with ligand (relative to sTRSVctl = 100) (log10 (% of sTRSVctl)); higher = less ribozyme self-cleavage, higher mRNA level; conditions: ligand concentration (+) RNA-Seq: 5 mM, HEK293T, reporter: mCherry (pCS4076), ligand present: yes
Experimental: as §1

theophylline [3] = variants of: B1; test: normalized RNA/DNA level without ligand (relative to sTRSVctl = 100) (log10 (% of sTRSVctl)); higher = less ribozyme self-cleavage, higher mRNA level; conditions: HEK293T, reporter: mCherry (pCS4076), ligand present: no
Experimental: as §1

theophylline [4] = variants of: B1; test: FACS-Seq fitted mean relative fluorescence mCherry/BFP with ligand (log10 relative fluorescence); ligand concentration (+) FACS-Seq: 1 mM; higher = higher reporter protein expression; conditions: HEK293T, ligand present: yes
Experimental: as §1

Row | Variant | FACS-Seq fitted mean (log10) (theophylline [1]) | normalized RNA/DNA level with ligand (log10) (theophylline [2]) | normalized RNA/DNA level without ligand (log10) (theophylline [3]) | FACS-Seq fitted mean (log10) (theophylline [4])
1 | AAUCU | 0.634 ± 0.065 | 1.94 ± 0.026 | 1.87 ± 0.026 | 0.57 ± 0.049
2 | AAUCC | 0.844 ± 0.012 | 2.04 ± 0.052 | 1.95 ± 0.07 | 0.808 ± 0.05
3 | CAUGC | 0.705 ± 0.09 | 2.03 ± 0.085 | 1.98 ± 0.071 | 0.633 ± 0.01
4 | CAUGU | 0.628 ± 0.042 | 1.98 ± 0.033 | 1.96 ± 0.052 | 0.704 ± 0.062
5 | CAUGA | 0.56151 ± 0.00013 | 2.03 ± 0.064 | 1.69 ± 0.1 | 0.619 ± 0.12
6 | UCAUU | 0.822 ± 0.046 | 2.03 ± 0.045 | 1.815 ± 0.0057 | 0.906 ± 0.071
7 | UCAUG | 0.358 ± 0.073 | 1.9 ± 0.12 | 1.89 ± 0.091 | 0.349 ± 0.033
8 | AAGUC | 0.771 ± 0.032 | 1.96 ± 0.045 | 1.91 ± 0.1 | 0.866 ± 0.079
9 | AAGUG | 0.678 ± 0.085 | 1.96 ± 0.04 | 1.79 ± 0.074 | 0.763 ± 0.076
10 | AAGUU | 0.341 ± 0.057 | 1.939 ± 0.0073 | 1.75 ± 0.073 | 0.39 ± 0.035
11 | AAGUA | 0.448 ± 0.1 | 2 ± 0.064 | 1.63 ± 0.12 | 0.35 ± 0.062
12 | GAUGU | 0.101 ± 0.097 | 1.88 ± 0.052 | 1.71 ± 0.099 | 0.375 ± 0.068
13 | GAUGG | -0.543 ± 0.056 | 2 ± 0.062 | 1.8 ± 0.022 | -0.332 ± 0.0071
14 | GAUGC | 0.964 ± 0.13 | 1.98 ± 0.029 | 1.88 ± 0.098 | 1.05 ± 0.072
15 | GCAGU | -0.266 ± 0.054 | 1.97 ± 0.12 | 1.774 ± 0.0085 | -0.0491 ± 0.075
16 | GCAGA | 0.899 ± 0.2 | 2.04 ± 0.03 | 1.66 ± 0.083 | 0.875 ± 0.14
17 | ACCCG | 0.917 ± 0.11 | 2 ± 0.012 | 1.94 ± 0.12 | 0.973 ± 0.031
18 | ACCCC | 0.753 ± 0.1 | 2.037 ± 0.0066 | 1.99 ± 0.053 | 0.657 ± 0.08

From the supplement of paper PMC6757056
